Results on three molecules are retold here after paper PMC5534430, “Crystal structure of a Pseudomonas malonate decarboxylase holoenzyme hetero-tetramer” (Nature Communications, 2017).

For data set [1], the target named is T1, MDC hetero-tetramer (MdcA active site) (Pseudomonas aeruginosa, UniProt Q9I6T0).
T1 construct: hybrid hetero-tetramer: full-length MdcA (1-554), MdcD, MdcE of P. aeruginosa and full-length MdcC of P. fluorescens without prosthetic group; only MdcE N-terminal His-tagged; E. coli Rosetta; 140 kD, 1:1:1:1; with Malonate decarboxylase acyl carrier protein (malonate decarboxylase subunit delta), Pseudomonas fluorescens; Malonate decarboxylase subunit beta; Malonate decarboxylase subunit gamma
T1 sequence (Q4K4F7 whole entry, one chain of several, further chain): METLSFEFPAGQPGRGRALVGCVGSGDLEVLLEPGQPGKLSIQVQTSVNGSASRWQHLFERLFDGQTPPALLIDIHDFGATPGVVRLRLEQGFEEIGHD
T1 sequence (Q9I6T0 entry or part of it, one chain of several): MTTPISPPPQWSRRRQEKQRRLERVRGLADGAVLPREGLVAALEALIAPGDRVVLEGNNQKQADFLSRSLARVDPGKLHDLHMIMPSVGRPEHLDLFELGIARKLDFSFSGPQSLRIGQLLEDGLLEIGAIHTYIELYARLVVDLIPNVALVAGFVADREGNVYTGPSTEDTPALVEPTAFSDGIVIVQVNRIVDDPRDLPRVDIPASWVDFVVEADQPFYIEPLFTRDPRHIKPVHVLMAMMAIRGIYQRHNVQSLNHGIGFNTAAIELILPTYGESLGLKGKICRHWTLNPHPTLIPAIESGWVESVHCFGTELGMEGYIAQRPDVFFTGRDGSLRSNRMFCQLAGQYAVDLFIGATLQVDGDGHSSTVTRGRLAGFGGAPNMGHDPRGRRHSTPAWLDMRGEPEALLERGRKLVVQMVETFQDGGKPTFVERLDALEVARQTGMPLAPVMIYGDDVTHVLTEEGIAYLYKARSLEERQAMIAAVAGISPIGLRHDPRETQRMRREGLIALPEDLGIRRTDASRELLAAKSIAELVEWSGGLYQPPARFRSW
The experiment in a line: X-ray crystal structure, […] Å. The note with it: malonate from the crystallization solution; MdcA active site between domains AN and AC; apo MdcC. The format is binding.

The target of data set [2] is MdcE subunit of malonate decarboxylase (P. aeruginosa), N-terminal His tag (P. aeruginosa). The experiment in a line: SEC; gel filtration of the co-expressed, purified MdcD–MdcE complex.
Substrate in the data set “purified protein”: CC(C)(COP(=O)(O)OP(=O)(O)OC[C@H]1O[C@@H](n2cnc3c(N)ncnc32)[C@H](O)[C@@H]1OP(=O)(O)O)[C@@H](O)C(=O)NCCC(=O)NCCSC(=O)CC(=O)O
The experiment in a line: purified protein. The format is biochemical, Pseudomonas aeruginosa. The note with it: decarboxylation, 2.5 μM enzyme, 20 mM Tris pH 8.0, Hill equation fit, Hill coefficient 1.68 ± 0.13.

By stoichiometry N is commonly meant the number of molecules, sites or subunits per partner or assembly. In general, kcat refers to the number of substrate molecules converted per active site and unit of time at saturation.

`O=C(O)CC(=O)O` [malonate]: the “X-ray crystal structure, 2.2 Å” value in data set [1] is listed as “A malonate molecule from the crystallization solution is bound in the active site”.

B1: MdcD subunit of malonate decarboxylase (P. aeruginosa) (natural protein)
chain: MTDVARLLALRSFTELGARQRARALLDAGSFRELLDPFAGVQSPWLERQGIVPQADDGVVVARGLLDGQPAVLAAIEGAFQGGSLGEVSGAKIAGALELAAEDNRNGVPTRALLLLETGGVRLQEANLGLAAIAEIQAAIVDLQRYQPVVAVIAGPVGCFGGMSIAAGLCSYVLVTREARLGLNGPQVIEQEAGIAEYDSRDRPFIWSLTGGEQRFASGLADAYLADDLDEVRTSVLAYFAKGLPARPRCRRAEDYLRRLGDLDTAEQPDAAGVRRLYQGLGQGDAT
B1: the stoichiometry N in data set [2] amounted to 1.

B2: MdcD–MdcE complex (Pseudomonas aeruginosa PAO1) (protein)
chain 1: B1 chain
chain 2: MSQPFASRGLAWFQALAGSLAPRPGDPASLRVADAELDGYPVRFLAVVPDPDNPFPRARQGEVGLLEGWGLAAAVDEALEADREAPRKRALLAIVDVPSQAYGRREEALGIHQALAGAVDAYARARLAGHPLIGLLVGKAMSGAFLAHGYQANRLIALHDPGVMVHAMGKAAAARITLRSVEELEALAAKVPPMAYDIDSYASLGLLWRTLPVETVEVPSTADLVRVRTCLGEALADILGGPRDLGGRLGAANREASARVRRLLREQW
notes: full-length; N-terminal His-tagged MdcE (28 kD), untagged MdcD (30 kD); co-expressed in E. coli BL21Star (DE3) from pCDFDuet; 1:1 hetero-dimer in solution
In the case of B2, in “purified protein”, the K0.5 was 100 ± 5 µM and the kcat came out at 2.3 ± 0.1 s⁻¹.
